In US8093030B2, “Thermostable viral polymerases and methods of use” (Lucigen Corporation, priority 2005, dated 2012):
Changes are numbered by the printed parent chain. Names may count otherwise.

Tests used:
[1] = test system: M13 primer on M13mp18 ssDNA; assay: Primer extension detected by Pico Green with chain terminating analogs; format: biochemical; conditions: control without chain terminating analogs, 2 mM each dNTP
Method: In a second experiment, incorporation was tested by detection of DNA synthesis using a double-strand specific fluorescent dye, Pico Green (Invitrogen). […] In separate reactions, a mix of ddGTP, ddATP ddTTP, ddCTP (2 mM each) and a mix of the four acyNTPs (2 mM each) were added to extension reactions followed by DNA polymerase. As a control, identical reactions without added chain terminating analogs were also performed. Polymerase 3173 mutant D49A was tested and, for comparison, T7 DNA polymerase, which incorporates ddNTPs with very low discrimination, and Klenow fragment of E. coli polymerase I and VENTR DNA polymerase (New England Biolabs), both of which have a higher discrimination, were also tested. Extension of the primer was detected by fluorescence of Pico Green dye.

[2] = test system: plasmid and random primers; assay: Strand displacement activity in rolling circle amplification (RCA) with random primers; format: biochemical
Method: As used herein, “strand displacement activity” refers to the ability of a polymerase to displace downstream DNA encountered during synthesis. Protocols such as, e.g., strand displacement amplification (SDA) may exploit this activity. Strand displacement activity may be determined using primer-initiated synthesis. A polymerase of the invention is incubated in the presence of a plasmid and random primers. A polymerase of the invention may extend the primer the complete circumference of the plasmid at which point the 5′ end of the primer is encountered. If the polymerase is capable of strand displacement activity, the nascent strand of DNA is displaced and the polymerase continues DNA synthesis. The presence of strand displacement activity results in a product having a molecular weight greater than the original template. The higher molecular weight product can be easily detected by agarose gel electrophoresis.
Strand displacement activity was determined using primer-initiated synthesis in a rolling circle amplification (RCA) protocol. Briefly, polymerase 3173 was incubated in the presence of a plasmid and random primers. Polymerase 3173 extended the primer the complete circumference of the plasmid at which point the 5′ end of the primer was encountered.

[3] = test system: single-stranded M13mp18 and double stranded pUC19 plasmid DNA; assay: High temperature isothermal RCA amplification with random decamer primers; format: biochemical; conditions: both templates
Method: Five units of polymerase 3173 was used to amplify one nanogram each of single-stranded M13mp18 and double stranded pUC19 plasmid DNA. […] Either 0.5 μM or 5 μM of random decamer primers were added to each template. Reactions were incubated at 95° C. prior to addition of enzyme, then 16 hours at 55° C. with enzyme. One fiftieth of each reaction was resolved on a 1% agarose gel.
Results are shown in FIG. 5, Panel A. Lanes are as follows: five units of 3173 wild type DNA polymerase used to amplify M13mp18 single-stranded DNA template (lanes 2 and 3) and pUC19 double-stranded DNA (lanes 4 and 5) or no template (lane 6). Random ten nucleotide oligomer primers are added in the concentrations of 5 μM (lanes 2, 4 and 6) or 0.5 μM (lanes 3 and 5).
To determine if the amplification was specific for the template DNA, one μl of the amplification product of the positive pUC19 reaction was tested in a PCR reaction using primers specific for a 1 kb sequence in the bla gene of the original plasmid template. As a negative control, a reaction lacking deoxynucleotides was analyzed using PCR. As a positive control, the 1 kb sequence was amplified directly from 1 ng of pUC19.

[4] = test system: Poly rA: Oligo dT; assay: Reverse transcriptase activity by incorporation of radiolabeled dTTP; format: biochemical
Method: Reverse transcriptase activity was detected by incorporation of radiolabeled deoxyribonucleotide triphosphates into polydeoxyribonucleotides using a ribonucleic acid template. […] Incorporation of dTTP was detected as radioactive counts adhering to DE81 filter paper. Similar reverse transcription reactions were measured by incorporation of labeled dTTP on a poly rA template using 1 unit of Tth (Promega) and 1 unit MMLV reverse transcriptase (Novagen) according to the respective manufacturers' recommended conditions.

[5] = test system: primed single stranded M13 DNA; assay: Binding constant (Km) for primed template; format: biochemical; conditions: nucleotides in excess, 70° C.
Method: The binding constant (reported as Km, the concentration at which the reaction rate is 50% maximal) for nucleotides by polymerase 3173 was determined using activated calf thymus DNA as a template. Reactions were maintained under pseudo-first order conditions using a molar excess of all components, with the exceptions of the enzyme and the nucleotides. Reactions (50 μl) were incubated at 70° C. and samples (5 μl each) were removed at varying time points and spotted on DE81 paper. Activity was determined as described in Example 6. The binding constant for primed template was similarly determined except that nucleotides were supplied in excess and the concentration of primed template (primed single stranded M13 DNA) was varied.

[6] = test system: plasmid DNA nicked with N.Bst NB1; assay: Isothermal RCA in the absence of added primers (nick-initiated synthesis)
Method: Suitably, nick-initiated polymerase activity can be detected, e.g., on an agarose gel, as an increase in the amount of DNA product due to synthesis in the presence of a nicking enzyme as compared to minimal or no product synthesized when nicking enzyme is absent from the reaction.
Reactions containing 10 ng of plasmid DNA, 20 mM Tris-HCl, 10 mM (NH4)2SO4, 10 mM KCl, 2 mM MgSO4, 0.1% Triton X-100, pH 8.8 at 25° C., and 200 μM each of dGTP, dATP, dTTP and dCTP were incubated for 2 hours at 56° C. with or without 10 units of nick-generating enzyme N.Bst NB1 (NEB) and either no DNA polymerase, 200 units of 3173 wt or 400 units of 3173 (D49A) mutant enzyme. Parallel reactions were performed in the absence of nicking enzyme, polymerase or both. Amplification products were analyzed by agarose gel electrophoresis.

[7] = test system: radiolabeled polynucleotide; assay: Exonuclease assay (radioactive nucleotide release); format: biochemical
Method: For example, polynucleotides can be synthesized such that a detectable proportion of the nucleotides are radioactively labeled. These polynucleotides are incubated in an appropriate buffer in the presence of the polypeptide to be tested. After incubation, the polynucleotide is precipitated and exonuclease activity is detectable as radioactive counts due to free nucleotides in the supernatant.
The presence of a 3′-5′ exonuclease domain in the 3173 DNA polymerase was detected by reduction in molecular weight of a 5′ fluorescently labeled oligonucleotide. Upon incubation of the primer/template complex described in Example 5, under the same conditions, a portion of the primer product was reduced in apparent molecular weight. This reduction in size was detected by capillary electrophoresis using an ABI 310 Genetic Analyzer operated in GeneScan mode. The presence of an exonuclease domain was confirmed by sequence alignment and by incubation of the polymerase with a radiolabeled polynucleotide, followed by digestion and precipitation with trichloroacetic acid. Radioactivity due to free nucleotides in the supernatant was measured.
An exonuclease assay was performed to confirm that exonuclease activity was eliminated in the mutants. […]
Exonuclease activity for polymerase 3173 was determined as described in Example 7.

[8] = test system: lacIq gene; assay: Fidelity assay, lacIq amplification with blue/white colony count; conditions: 25 PCR cycles, target size 349 for lacIq
Method: Fidelity was determined by a modification of the standard assay in which the lacIq gene is amplified by the DNA polymerase of interest and inserted into a plasmid containing genes encoding a functional lacZ alpha peptide and a selectable marker. Primers of SEQ ID NOS:28 and 29 were used to amplify a sequence containing both the lacIq and the KanR gene. […] Normally a white phenotype is seen for clone containing this construct when plated on X-Gal. Mutation of the lacIq results in a blue phenotype for the colonies when plated on X-Gal.
For high fidelity PCR amplification, five units of the wild-type (proofreading) DNA polymerase 3173 (SEQ ID NO: 6) was tested using the following mix (50 mM Tris HCl (pH 9.0 at 25° C.), 50 mM KCl, 10 mM (NH4)2SO4, 1.5 mM MgSO4, 1.5 mM MgCl2, 0.1% triton-X100, 250 mM ectoine and 0.2 mM each of dGTP, dATP, dTTP and dCTP. Opposing primers of SEQ ID 28 and 29 (1 μM each) amplified the expected 2 k kb product from template SEQ ID 30 (10 ng). After thermal cycling (94° C. for 1 minute, 25 cycles of (94° C. for 15 seconds, 60° C. for 15 seconds, 72° C. for 2.5 minutes) and 72° C. 7 minutes), reaction products were quantified to determine “fold amplification,” (see below) using agarose gel electrophoresis. Both primers contain Eco109I sites. The PCR product was digested with Eco109I and inserted into the Eco109I site of pUC19. 10 G cells transformed by the construct were plated on LB plates containing ampicillin (100 μg/ml), kanamycin (30 μg/ml) and X-Gal (50 μg/ml). Blue and white colony counts were used for the fidelity determinations.

[9] = test system: ROX-labeled primer annealed to single-stranded M13mp18 DNA; assay: Fluorescent (ROX) primer extension in presence of ddNTPs; format: biochemical
Method: In separate reactions, ddGTP, ddATP, ddTTP, and ddCTP were added to the above mix in concentrations of 50, 500 and 5000 μM each. Five units of polymerase 3173 mutant D49A were added and the reactions were incubated for 30 minutes at 70° C. Extension of the primer was detected by the ABI 310 Genetic Analyzer in Gene Scan mode.

[10] = test system: activated ct DNA; assay: Inhibition of radioactive nucleotide incorporation by chain terminating analogs; format: biochemical; conditions: control, 40 μM each dNTP, 70° C. 30 min
Method: Based on alignment with family A DNA polymerases, amino acid 418 of the polymerase 3173 mutant D49A was mutated from phenylalanine to tyrosine. The mutant protein was expressed and the cells lysed and heat-treated at 70° C. for 10 minutes to inactivate host proteins. The polymerase 3173 mutant D49A/F418Y was tested for inhibition of radioactive nucleotide incorporation using chain terminating nucleotide analogs in the same mix as unlabeled deoxynucleotides. […] In separate reactions both the D49A/F418Y mutant and purified polymerase 3173 mutant D49A were tested for inhibition by 4 mM each of ddNTPs and 4 mM each acycloNTPs. A control with no chain terminators was included. 50 μl reactions were incubated at 70° C. for 30 min. 15 μl of each reaction was spotted on DE81 paper, washed and counted, and units of activity were determined as described in Example 6. The degree of inhibition due to incorporation of dideoxy- and acyclo-nucleotides is tabulated below.

B1: T7: T7 DNA polymerase, which incorporates ddNTPs with very low discrimination (protein, UniProt P00581 1-704, looked up)
DNA-directed DNA polymerase: MIVSDIEANALLESVTKFHCGVIYDYSTAEYVSYRPSDFGAYLDALEAEVARGGLIVFHNGHKYDVPALTKLAKLQLNREFHLPRENCIDTLVLSRLIHSNLKDTDMGLLRSGKLPGKRFGSHALEAWGYRLGEMKGEYKDDFKRMLEEQGEEYVDGMEWWNFNEEMMDYNVQDVVVTKALLEKLLSDKHYFPPEIDFTDVGYTTFWSESLEAVDIEHRAAWLLAKQERNGFPFDTKAIEELYVELAARRSELLRKLTETFGSWYQPKGGTEMFCHPRTGKPLPKYPRIKTPKVGGIFKKPKNKAQREGREPCELDTREYVAGAPYTPVEHVVFNPSSRDHIQKKLQEAGWVPTKYTDKGAPVVDDEVLEGVRVDDPEKQAAIDLIKEYLMIQKRIGQSAEGDKAWLRYVAEDGKIHGSVNPNGAVTGRATHAFPNLAQIPGVRSPYGEQCRAAFGAEHHLDGITGKPWVQAGIDASGLELRCLAHFMARFDNGEYAHEILNGDIHTKNQIAAELPTRDNAKTFIYGFLYGAGDEKIGQIVGAGKERGKELKKKFLENTPAIAALRESIQQTLVESSQWVAGEQQVKWKRRWIKGLDGRKVHVRSPHAALNTLLQSAGALICKLWIIKTEEMLVEKGLKHGWDGDFAYMAWVHDEIQVGCRTEEIAQVVIETAQEAMRWVGDHWNFRCLLDTEGKMGPNWAICH
[1]
  Primer extension, dNTPs: 100.0%

B2: polymerase 3173: thermostable viral DNA polymerase with the amino acid sequence of SEQ ID NO:6 (protein)
chain: MGEDGLSLPKMMNTPKPILKPQPKALVEPVLCDSIDEIPAKYNEPVYFDLETDEDRPVLASIYQPHFERKVYCLNLLKEKVARFKDWLLKFSEIRGWGLDFDLRVLGYTYEQLRNKKIVDVQLAIKVQHYERFKQGGTKGEGFRLDDVARDLLGIEYPMNKTKIRETFKNNMFHSFSNEQLLYASLDAYIPHLLYEQLTSSTLNSLVYQLDQQAQKVVIETSQHGMPVKLKALEEEIHRLTQLRSEMQKQIPFNYNSPKQTAKFFGVNSSSKDVLMDLALQGNEMAKKVLEARQIEKSLAFAKDLYDIAKRSGGRIYGNFFTTTAPSGRMSCSDINLQQIPRRLRSFIGFDTEDKKLITADFPQIELRLAGVIWNEPKFIEAFRQGIDLHKLTASILFDKNIEEVSKEERQIGKSANFGLIYGIAPKGFAEYCIANGINMTEEQAYEISQKVEEVLHKDCRQHQVAYERFKYNEYVDNETWLNRTYRAWKPQDLLNYQIQGSGAELFKKAIVLLKETKPDLKIVNLVHDEIVVEADSKEAQDLAKLIKEKMEEAWDWCLEKAEEFGNRVAKIKLEVEEPHVGNTWEKP
modifications: Uncultured newly isolated virus
[2]; listed as 3173
  Strand displacement: strong
[2]; listed as Polymerase 3173
  Strand displacement: displaced the nascent strand of DNA and continued DNA synthesis
[3]; 5 units, 1 ng template, 16 hours at 55° C.
  estimated overall yield: approximately 50 μg
[3]
  amplification: up to 50,000 fold
[4]
  reverse transcription in presence of manganese versus magnesium: equivalent
[4]; 1 U enzyme, 60° C. 20 minutes (commercial enzymes per manufacturers' conditions)
  Incorporation of dTTP: 1.037 nmol
other
  Thermostability (T1/2 at 95°): 10 min
[5]
  Km: 5.3 nM
[6]
  Extension from nicks: strong
[6]; nicking enzyme present, 2 hours at 56° C., 200 units 3173 wt or 400 units D49A
  yields of DNA product: multi-microgram yields
[7]
  3′-5′ exonuclease activity: strong
[7]; assay detects levels below 0.1% of wild-type
  nuclease activity: potent
[8]
  Fidelity: 6.98 × 10^4
[8]; listed as DNA polymerase 3173
  Fidelity: 6.98E+04

B3: polymerase 3173 mutant D49A/F418Y: double mutant of polymerase 3173 with both a D49A and a F418Y mutation, SEQ ID NO:27 (protein)
chain: B2 chain with D49A, F418Y
[9]; 0.2× ddGTP:dGTP
  primer extension at 0.2× ratio of ddGTP:dGTP: nearly complete inhibition of primer extension
[9]; conclusion drawn from the extension/incorporation data
  discrimination against chain terminating nucleotides: nearly zero
[10]
  Activity, no terminators: 100.0%
